# B1: HH7HH8 (dsDNA)
# DNA 1: AACAACAACAAATGCCGTCTGAACCAACATGCCGTCTGAAAACAACAACAAC
# DNA 2: GTTGTTGTTGTTTTCAGACGGCATGTTGGTTCAGACGGCATTTGTTGTTGTT
# What was measured:
# Settings in all cases: protein: recombinant; tags: C-terminal 6xHis; label: 32P end label; blunt
# PilG30-80 = PilG30-80 (Neisseria meningitidis MC58, UniProt Q7DDR1 30-80); assay: South-western; Optimized EMSA: 50 mM HEPES pH 7.5, 100 mM NaCl, 5 mM MgCl2, 1 mM DTT, 10% glycerol, 0.05% DDM, on ice 15 min, 0.45 nM DNA; first EMSA: 25 mM NaH2PO4 pH 8.0, 150 mM NaCl, 1 mM DTT, 10% glycerol, 0.05% DDM, on ice
# PilG1-60 = PilG1-60 (Neisseria meningitidis MC58, UniProt Q7DDR1 1-60); assay: as above
# PilG257-410 = PilG257-410 (Neisseria meningitidis MC58, UniProt Q7DDR1 257-410); assay: as above
# PilG166-410 = PilG166-410 (Neisseria meningitidis MC58, UniProt Q7DDR1 166-410); assay: as above
# PilG FL = PilG FL (Neisseria meningitidis MC58, UniProt Q7DDR1 1-410); assay: EMSA; optimized EMSA; R2 0.96?; Optimized EMSA: 50 mM HEPES pH 7.5, 100 mM NaCl, 5 mM MgCl2, 1 mM DTT, 10% glycerol, 0.05% DDM, on ice 15 min, 0.45 nM DNA; first EMSA: 25 mM NaH2PO4 pH 8.0, 150 mM NaCl, 1 mM DTT, 10% glycerol, 0.05% DDM, on ice
# PilG EEE39-41AAA = PilG EEE39-41AAA (Neisseria meningitidis MC58, UniProt Q7DDR1 1-410, E39A;E40A;E41A); assay: South-western; increased vs FL per text; Optimized EMSA: 50 mM HEPES pH 7.5, 100 mM NaCl, 5 mM MgCl2, 1 mM DTT, 10% glycerol, 0.05% DDM, on ice 15 min, 0.45 nM DNA; first EMSA: 25 mM NaH2PO4 pH 8.0, 150 mM NaCl, 1 mM DTT, 10% glycerol, 0.05% DDM, on ice
# PilG RKK43-45AAA = PilG RKK43-45AAA (Neisseria meningitidis MC58, UniProt Q7DDR1 1-410, R43A;K44A;K45A); assay: EMSA; extrapolated; about 50% bound at 5 uM per text; Optimized EMSA: 50 mM HEPES pH 7.5, 100 mM NaCl, 5 mM MgCl2, 1 mM DTT, 10% glycerol, 0.05% DDM, on ice 15 min, 0.45 nM DNA; first EMSA: 25 mM NaH2PO4 pH 8.0, 150 mM NaCl, 1 mM DTT, 10% glycerol, 0.05% DDM, on ice
# PilG1-80 = PilG1-80 (Neisseria meningitidis MC58, UniProt Q7DDR1 1-80); assay: EMSA; 5 mM MgCl2; Optimized EMSA: 50 mM HEPES pH 7.5, 100 mM NaCl, 5 mM MgCl2, 1 mM DTT, 10% glycerol, 0.05% DDM, on ice 15 min, 0.45 nM DNA; first EMSA: 25 mM NaH2PO4 pH 8.0, 150 mM NaCl, 1 mM DTT, 10% glycerol, 0.05% DDM, on ice
# PilG SS62-63AA = PilG SS62-63AA (Neisseria meningitidis MC58, UniProt Q7DDR1 1-410, S62A;S63A); assay: South-western; same as FL; Optimized EMSA: 50 mM HEPES pH 7.5, 100 mM NaCl, 5 mM MgCl2, 1 mM DTT, 10% glycerol, 0.05% DDM, on ice 15 min, 0.45 nM DNA; first EMSA: 25 mM NaH2PO4 pH 8.0, 150 mM NaCl, 1 mM DTT, 10% glycerol, 0.05% DDM, on ice
# PilG Q55A = PilG Q55A (Neisseria meningitidis MC58, UniProt Q7DDR1 1-410, Q55A); assay: as above
# PilG1-178 = PilG1-178 (Neisseria meningitidis MC58, UniProt Q7DDR1 1-178); assay: EMSA; 5 mM MgCl2; DUS+ duplex assigned by Table 2 EMSA footnote; Optimized EMSA: 50 mM HEPES pH 7.5, 100 mM NaCl, 5 mM MgCl2, 1 mM DTT, 10% glycerol, 0.05% DDM, on ice 15 min, 0.45 nM DNA; first EMSA: 25 mM NaH2PO4 pH 8.0, 150 mM NaCl, 1 mM DTT, 10% glycerol, 0.05% DDM, on ice
binder,measurement,setting,value
B1,binding result,PilG30-80,no binding
same,binding result,PilG1-60,no binding
same,binding result,PilG257-410,no binding
same,binding result,PilG166-410,no binding
same,apparent K (half saturation),PilG FL,1070 nM
same,binding result,PilG EEE39-41AAA,binds
same,apparent K (half saturation),PilG RKK43-45AAA,~685 µM
same,apparent K (half saturation),PilG1-80,283 nM
same,binding result,PilG SS62-63AA,binds
same,binding result,PilG Q55A,binds
same,apparent K (half saturation),PilG1-178,269 nM

# From article PMC4527729, “The Inner Membrane Protein PilG Interacts with DNA and the Secretin PilQ in Transformation”
